# Results published in patent US20080089931.
# Biological target: EphA2 receptor tyrosine kinase (UniProt P29317)
# UniProt P29317, sequence (P29317 whole entry, looked up): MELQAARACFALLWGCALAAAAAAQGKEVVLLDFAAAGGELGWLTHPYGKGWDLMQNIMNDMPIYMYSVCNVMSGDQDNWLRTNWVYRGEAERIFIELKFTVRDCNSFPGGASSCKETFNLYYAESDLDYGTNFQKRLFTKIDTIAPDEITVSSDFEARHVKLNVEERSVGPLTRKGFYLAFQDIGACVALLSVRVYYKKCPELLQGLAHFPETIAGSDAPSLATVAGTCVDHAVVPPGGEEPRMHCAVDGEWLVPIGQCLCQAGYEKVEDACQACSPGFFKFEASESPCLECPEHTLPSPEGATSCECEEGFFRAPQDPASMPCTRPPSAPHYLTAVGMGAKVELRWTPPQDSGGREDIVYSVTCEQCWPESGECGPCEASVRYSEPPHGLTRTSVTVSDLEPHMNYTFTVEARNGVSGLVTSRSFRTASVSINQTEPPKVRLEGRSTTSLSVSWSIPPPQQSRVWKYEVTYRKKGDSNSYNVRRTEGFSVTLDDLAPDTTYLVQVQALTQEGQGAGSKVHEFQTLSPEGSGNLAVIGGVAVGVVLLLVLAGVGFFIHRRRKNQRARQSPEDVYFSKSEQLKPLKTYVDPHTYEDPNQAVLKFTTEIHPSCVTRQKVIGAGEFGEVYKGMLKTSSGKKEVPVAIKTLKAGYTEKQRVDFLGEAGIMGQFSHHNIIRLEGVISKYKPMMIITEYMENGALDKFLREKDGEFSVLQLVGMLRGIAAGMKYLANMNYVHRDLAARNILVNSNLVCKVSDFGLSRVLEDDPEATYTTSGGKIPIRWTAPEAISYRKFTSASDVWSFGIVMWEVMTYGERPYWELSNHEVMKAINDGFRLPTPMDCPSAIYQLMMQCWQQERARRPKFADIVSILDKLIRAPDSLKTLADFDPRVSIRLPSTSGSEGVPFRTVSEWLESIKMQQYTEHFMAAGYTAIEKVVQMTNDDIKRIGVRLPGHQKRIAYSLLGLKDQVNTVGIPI
substance,measurement,value
purified LMW-PTP protein,dephosphorylation of immunoprecipitated EphA2 (phosphotyrosine Western blot),the LMW-PTP dephosphorylated EphA2 in an enzyme concentration-dependent and a time-dependent manner
